Source: patent publication US20090285798A1

Biological target: gp120
Assay: fluorescence anisotropy, Kd values of Table I, told of the isolates together

## Alexa labeled mini-protein CD4M47 (peptide)
  fold gain of affinity over CD4M48: 3 fold
